According to the supplement of paper PMC9233669:
Fewer inactive variants are shown than the library holds.

Assays:
biotinyl-Val-oxazolone = assay: self-aminoacylation, catalytic enhancement (BVO) (fold over background); higher = more active; k-Seq, kA / k0A0; sequences stand for … in GGGAAUGGAUCCACAUCUACGAAUUC…UUCACUGCAGACUUGACGAAGCUG
Procedure, shortened: (§1)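 Each biotinyl-aminoacyl-oxazolone, at 2–1250 μM, was incubated with mutagenized RNA pools (0.43 μM) carrying a 21-nt variable region. The 50 μL reactions contained HEPES/NaCl/KCl/MgCl2/CaCl2 buffer with 5% acetonitrile at pH 6.9–7.0 and ran for 90 minutes at room temperature. After streptavidin capture, RNA was measured by qPCR in triplicate and by Illumina sequencing, and catalytic enhancement was calculated as median kA over the uncatalyzed rate from a pseudo-first-order fit of per-sequence fraction reacted.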

biotinyl-Trp-oxazolone = assay: self-aminoacylation, catalytic enhancement (BWO) (fold over background); higher = more active; k-Seq, kA / k0A0; sequences stand for … in GGGAAUGGAUCCACAUCUACGAAUUC…UUCACUGCAGACUUGACGAAGCUG
Procedure, shortened: as §1

biotinyl-Met-oxazolone = assay: self-aminoacylation, catalytic enhancement (BMO) (fold over background); higher = more active; k-Seq, kA / k0A0; sequences stand for … in GGGAAUGGAUCCACAUCUACGAAUUC…UUCACUGCAGACUUGACGAAGCUG
Procedure, shortened: as §1

biotinyl-Ile-oxazolone = assay: self-aminoacylation, catalytic enhancement (BIO) (fold over background); higher = more active; k-Seq, kA / k0A0; sequences stand for … in GGGAAUGGAUCCACAUCUACGAAUUC…UUCACUGCAGACUUGACGAAGCUG
Procedure, shortened: as §1

biotinyl-Leu-oxazolone = assay: self-aminoacylation, catalytic enhancement (BLO) (fold over background); higher = more active; k-Seq, kA / k0A0; sequences stand for … in GGGAAUGGAUCCACAUCUACGAAUUC…UUCACUGCAGACUUGACGAAGCUG
Procedure, shortened: as §1

biotinyl-Phe-oxazolone = assay: self-aminoacylation, catalytic enhancement (BFO) (fold over background); higher = more active; k-Seq, kA / k0A0; sequences stand for … in GGGAAUGGAUCCACAUCUACGAAUUC…UUCACUGCAGACUUGACGAAGCUG
Procedure, shortened: as §1

Sequence | self-aminoacylation (biotinyl-Val-oxazolone) | self-aminoacylation (biotinyl-Trp-oxazolone) | self-aminoacylation (biotinyl-Met-oxazolone) | self-aminoacylation (biotinyl-Ile-oxazolone) | self-aminoacylation (biotinyl-Leu-oxazolone) | self-aminoacylation (biotinyl-Phe-oxazolone)
CGACUCUUCAAGCAAUCGGUC [Fam1B.1 aminoacylation ribozyme variant] | 1.32 | 3.07 | 1.02 | 1.22 | 0.86 | 3.23
AUUACCCGGGUCAUCGGGUGA [Fam2.1 aminoacylation ribozyme variant] | 7.9 | 12.4 | 13.9 | 6.62 | 14.7 | 132
CUACUUCACACAAUUGGUCUG [Fam1A.1 aminoacylation ribozyme variant] | 0.739 | 0.828 | 1 | 0.948 | 0.729 | 0.431
AUUCACCUAGGUCAUCGGGAG [Fam2.2 aminoacylation ribozyme variant] | 1.44 | 1.39 | 1.58 | 1.43 | 1.86 | 1.65
AAGUUUGGUAAUAGUCACAAG [Fam3.1 aminoacylation ribozyme variant] | 1.07 | 0.739 | 1.01 | 1.04 | 0.902 | 1.51
CCACGCUUCAAGCAAUCAGUC [Fam1B.1 aminoacylation ribozyme variant] | 0.83 | 9.22 | 0.811 | 0.745 | 0.886 | 27.4
CCACUAUUCAAGCAAUCGGUC [Fam1B.1 aminoacylation ribozyme variant] | 1.09 | 1.23 | 0.916 | 1.04 | 0.944 | 1.75
GUACUUCAAACAACCGGUCUG [Fam1A.1 aminoacylation ribozyme variant] | 1.54 | 2.02 | 1.21 | 1.67 | 1.23 | 4.78
UUUACCCUGGUCAUCGAGUAA [Fam2.1 aminoacylation ribozyme variant] | 5.3 | 11.8 | 13.9 | 4.45 | 11.7 | 30.5
AAGUUUGUUAAUACUCGCAAG [Fam3.1 aminoacylation ribozyme variant] | 0.81 | 0.7 | 0.692 | 0.893 | 0.76 | 1.07
AUUAGCCUGGUCAUGGAGUGA [Fam2.1 aminoacylation ribozyme variant] | 2.72 | 4.92 | 4.09 | 2.77 | 4.02 | 17.2
CUACACUUCAAGCAAUCGAUC [Fam1B.1 aminoacylation ribozyme variant] | 0.649 | 0.769 | 0.404 | 0.527 | 0.458 | 2.02
AUUCGCCUAGAUCAUCGGGUG [Fam2.2 aminoacylation ribozyme variant] | 2.27 | 3.12 | 2.69 | 2.08 | 4.04 | 19.1
AUUGCCCGGGUCAUCGAGUGA [Fam2.1 aminoacylation ribozyme variant] | 3.8 | 6.49 | 6.39 | 3.01 | 7.35 | 45.4
AUGUUUGCUAAUAGUCGAAAG [Fam3.1 aminoacylation ribozyme variant] | 1.11 | 2.94 | 1.08 | 1.28 | 1.07 | 8.7
AAGUUUGCUAAUACACGCAAG [Fam3.1 aminoacylation ribozyme variant] | 0.627 | 0.66 | 0.7 | 0.665 | 0.564 | 1.19
AUUCACGUAGCUCAUCGGGUG [Fam2.2 aminoacylation ribozyme variant] | 3.52 | 2.88 | 3.44 | 2.24 | 2.42 | 17.7
AAGUUUACUAAUAGACGCAAG [Fam3.1 aminoacylation ribozyme variant] | 1.03 | 0.834 | 0.816 | 0.695 | 0.638 | 1.15
CCACACUUUAAGGAAUCGGUC [Fam1B.1 aminoacylation ribozyme variant] | 0.826 | 0.644 | 0.717 | 0.862 | 0.725 | 0.557
CUACUUCUAACAAUCGGUCUU [Fam1A.1 aminoacylation ribozyme variant] | 0.871 | 0.465 | 0.701 | 0.748 | 0.753 | 0.801
AAGUUUGCUAAUAGUGGCAAA [Fam3.1 aminoacylation ribozyme variant] | 1.04 | 1.24 | 0.891 | 1.09 | 0.789 | 0.91
AAGUUGGCUUAUAGUCGCAAG [Fam3.1 aminoacylation ribozyme variant] | 1.61 | 1.7 | 1.94 | 1.59 | 1.64 | 2.35
UAGUUUGCUAAUAGUGGCAAG [Fam3.1 aminoacylation ribozyme variant] | 0.688 | 0.543 | 0.891 | 0.819 | 0.753 | 1.63
GGUCACCUAGGUCAUCGGGUG [Fam2.2 aminoacylation ribozyme variant] | 5.01 | 6.88 | 4.37 | 4.07 | 3.98 | 30.3
CUAAUUCAAACAAUCGGUCUU [Fam1A.1 aminoacylation ribozyme variant] | 0.716 | 1.32 | 0.695 | 0.743 | 0.629 | 2.49
CCACAAUUCAAGCAAUGGGUC [Fam1B.1 aminoacylation ribozyme variant] | 1.03 | 0.734 | 1.13 | 1.22 | 1.17 | 0.531
